Source: PMC10397247

What was measured:
[1] = biological target: T1, 4H906-bH; experiment: two-hybrid library CCNG1;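 note: natural log of median RNA to DNA barcode read ratio; higher means stronger binding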
T1 chain: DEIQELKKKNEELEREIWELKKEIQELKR

[2] = biological target: T2, 4H3414-bH; experiment: two-hybrid library CCNG1;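 note: natural log of median RNA to DNA barcode read ratio; higher means stronger binding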
T2 chain: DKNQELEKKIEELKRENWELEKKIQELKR

[3] = biological target: T3, 4H850-bH; experiment: two-hybrid library CCNG1;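 note: natural log of median RNA to DNA barcode read ratio; higher means stronger binding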
T3 chain: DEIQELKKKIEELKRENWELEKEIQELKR

[4] = biological target: T4, 4H683-bA; experiment: two-hybrid library CCNG1;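 note: natural log of median RNA to DNA barcode read ratio; higher means stronger binding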
T4 chain: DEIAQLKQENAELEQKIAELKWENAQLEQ

[5] = biological target: T5, 4H3817-bH; experiment: two-hybrid library CCNG1;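 note: natural log of median RNA to DNA barcode read ratio; higher means stronger binding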
T5 chain: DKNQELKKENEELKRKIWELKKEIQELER

[6] = biological target: T6, 4H570-bH; experiment: two-hybrid library CCNG1;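 note: natural log of median RNA to DNA barcode read ratio; higher means stronger binding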
T6 chain: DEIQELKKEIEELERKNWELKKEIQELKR

[7] = biological target: T7, 4H584-bH; experiment: two-hybrid library CCNG1
T7 chain: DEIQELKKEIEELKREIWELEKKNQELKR

[8] = biological target: T8, 4H3631-bH; experiment: two-hybrid library CCNG1
T8 chain: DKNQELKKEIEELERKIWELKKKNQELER

[9] = biological target: T9, 4H3974-bH; experiment: two-hybrid library CCNG1
T9 chain: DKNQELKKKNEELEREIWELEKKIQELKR

[10] = biological target: T10, 4H619-bH; experiment: two-hybrid library CCNG1
T10 chain: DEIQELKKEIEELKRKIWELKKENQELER

[11] = biological target: T11, 4H3638-bH; experiment: two-hybrid library CCNG1
T11 chain: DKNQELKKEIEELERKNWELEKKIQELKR

[12] = biological target: T12, P11-AA; experiment: two-hybrid library CCmax; conditions: mean of both orientations
T12 chain: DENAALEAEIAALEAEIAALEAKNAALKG

[13] = biological target: T13, P2-AA; experiment: two-hybrid library CCmax; conditions: mean of both orientations
T13 chain: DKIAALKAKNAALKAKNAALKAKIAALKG

[14] = biological target: T14, P8-AA; experiment: two-hybrid library CCmax; conditions: mean of both orientations
T14 chain: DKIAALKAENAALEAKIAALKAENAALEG

[15] = biological target: T15, P3-AA; experiment: two-hybrid library CCmax; conditions: mean of both orientations
T15 chain: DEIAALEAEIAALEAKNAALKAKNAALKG

[16] = biological target: T16, P1-AA; experiment: two-hybrid library CCmax; conditions: mean of both orientations
T16 chain: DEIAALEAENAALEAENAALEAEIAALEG

[17] = biological target: T17, AP4-AA; experiment: two-hybrid library CCmax
T17 chain: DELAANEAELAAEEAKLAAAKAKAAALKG

[18] = biological target: T18, AP8-AA; experiment: two-hybrid library CCmax; conditions: mean of both orientations
T18 chain: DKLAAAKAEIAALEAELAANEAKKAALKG

[19] = biological target: T19, P4-AA; experiment: two-hybrid library CCmax; conditions: mean of both orientations
T19 chain: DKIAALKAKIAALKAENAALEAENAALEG

[20] = biological target: T20, P12-AA; experiment: two-hybrid library CCmax; conditions: mean of both orientations
T20 chain: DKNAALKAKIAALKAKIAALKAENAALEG

[21] = biological target: T21, AP7-AA; experiment: two-hybrid library CCmax; conditions: mean of both orientations
T21 chain: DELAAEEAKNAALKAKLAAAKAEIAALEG

[22] = biological target: T22, AP5-AA; experiment: two-hybrid library CCmax; conditions: mean of both orientations
T22 chain: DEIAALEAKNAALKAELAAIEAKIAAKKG

[23] = biological target: GCN2_T; experiment: two-hybrid library CCmax
[24] = biological target: T23, P7-AA; experiment: two-hybrid library CCmax; conditions: mean of both orientations
T23 chain: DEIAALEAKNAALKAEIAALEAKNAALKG

[25] = biological target: T24, P9-AA; experiment: two-hybrid library CCmax; conditions: mean of both orientations
T24 chain: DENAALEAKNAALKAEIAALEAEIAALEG

[26] = biological target: T25, AP6-AA; experiment: two-hybrid library CCmax; conditions: mean of both orientations
T25 chain: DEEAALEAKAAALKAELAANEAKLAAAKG

[27] = biological target: T26, P10-AA; experiment: two-hybrid library CCmax; conditions: mean of both orientations
T26 chain: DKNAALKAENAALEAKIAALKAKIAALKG

[28] = biological target: T27, 4H953-bH; experiment: two-hybrid library CCNG1
T27 chain: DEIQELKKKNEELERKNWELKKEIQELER

[29] = biological target: T28, 4H3381-bH; experiment: two-hybrid library CCNG1
T28 chain: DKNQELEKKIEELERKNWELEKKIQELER

[30] = biological target: T29, O5-bP; experiment: two-hybrid library CCNG1
T29 chain: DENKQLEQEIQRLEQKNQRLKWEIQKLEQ

[31] = biological target: T30, 4H932-bH; experiment: two-hybrid library CCNG1
T30 chain: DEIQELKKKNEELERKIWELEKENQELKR

[32] = biological target: T31, 4H56-bH; experiment: two-hybrid library CCNG1
T31 chain: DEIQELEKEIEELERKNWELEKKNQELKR

[33] = biological target: T32, O16-bN; experiment: two-hybrid library CCNG1
T32 chain: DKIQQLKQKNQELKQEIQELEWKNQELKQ

[34] = biological target: T33, 4H796-bH; experiment: two-hybrid library CCNG1
T33 chain: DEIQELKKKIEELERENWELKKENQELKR

[35] = biological target: T34, 4H949-bH; experiment: two-hybrid library CCNG1
T34 chain: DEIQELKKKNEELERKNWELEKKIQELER

[36] = biological target: T35, 4H3364-bH; experiment: two-hybrid library CCNG1
T35 chain: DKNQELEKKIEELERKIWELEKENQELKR

[37] = biological target: T36, 4H730-bH; experiment: two-hybrid library CCNG1
T36 chain: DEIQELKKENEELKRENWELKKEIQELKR

[38] = biological target: T37, 4H349-bH; experiment: two-hybrid library CCNG1
T37 chain: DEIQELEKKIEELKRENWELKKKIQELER

[39] = biological target: T38, 4H3939-AA; experiment: two-hybrid library CCmax
T38 chain: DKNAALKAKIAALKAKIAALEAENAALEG

[40] = biological target: T39, 4H3121-AA; experiment: two-hybrid library CCmax; conditions: mean of both orientations
T39 chain: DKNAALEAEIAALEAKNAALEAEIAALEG

[41] = biological target: T40, 4H971-AA; experiment: two-hybrid library CCmax; conditions: mean of both orientations
T40 chain: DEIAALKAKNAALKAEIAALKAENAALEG

[42] = biological target: T41, 4H189-AA; experiment: two-hybrid library CCmax
T41 chain: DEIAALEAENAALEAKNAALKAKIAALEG

[43] = biological target: T42, 4H497-AA; experiment: two-hybrid library CCmax; conditions: mean of both orientations
T42 chain: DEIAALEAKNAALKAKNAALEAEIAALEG

[44] = biological target: T43, 4H3417-AA; experiment: two-hybrid library CCmax; conditions: mean of both orientations
T43 chain: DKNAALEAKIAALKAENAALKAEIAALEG

[45] = biological target: T44, 4H3066-AA; experiment: two-hybrid library CCmax; conditions: mean of both orientations
T44 chain: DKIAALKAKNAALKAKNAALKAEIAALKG

[46] = biological target: T45, 4H2991-AA; experiment: two-hybrid library CCmax; conditions: mean of both orientations
T45 chain: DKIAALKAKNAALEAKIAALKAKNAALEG

[47] = biological target: T46, 4H2248-AA; experiment: two-hybrid library CCmax; conditions: mean of both orientations
T46 chain: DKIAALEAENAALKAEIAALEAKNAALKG

[48] = biological target: T47, 4H3102-AA; experiment: two-hybrid library CCmax; conditions: mean of both orientations
T47 chain: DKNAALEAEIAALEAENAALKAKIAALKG

[49] = biological target: T48, 4H428-AA; experiment: two-hybrid library CCmax; conditions: mean of both orientations
T48 chain: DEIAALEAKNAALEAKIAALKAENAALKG

[50] = biological target: T49, 4H391-AA; experiment: two-hybrid library CCmax; conditions: mean of both orientations
T49 chain: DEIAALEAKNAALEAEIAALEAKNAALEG

[51] = biological target: T50, 4H2742-AA; experiment: two-hybrid library CCmax; conditions: mean of both orientations
T50 chain: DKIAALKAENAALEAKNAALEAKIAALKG

[52] = biological target: T51, 4H656-AA; experiment: two-hybrid library CCmax; conditions: mean of both orientations
T51 chain: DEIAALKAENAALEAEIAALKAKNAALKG

[53] = biological target: T52, 4H478-AA; experiment: two-hybrid library CCmax; conditions: mean of both orientations
T52 chain: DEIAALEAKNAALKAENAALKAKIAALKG

[54] = biological target: T53, 4H3591-AA; experiment: two-hybrid library CCmax; conditions: mean of both orientations
T53 chain: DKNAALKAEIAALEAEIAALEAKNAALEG

[55] = biological target: T54, 4H2283-AA; experiment: two-hybrid library CCmax; conditions: mean of both orientations
T54 chain: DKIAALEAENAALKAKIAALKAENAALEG

[56] = biological target: T55, 4H3029-AA; experiment: two-hybrid library CCmax; conditions: mean of both orientations
T55 chain: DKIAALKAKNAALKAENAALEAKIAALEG

[57] = biological target: T56, 4H2713-AA; experiment: two-hybrid library CCmax; conditions: mean of both orientations
T56 chain: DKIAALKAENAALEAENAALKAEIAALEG

[58] = biological target: T57, 4H3666-AA; experiment: two-hybrid library CCmax; conditions: mean of both orientations
T57 chain: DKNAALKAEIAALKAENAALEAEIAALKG

[59] = biological target: T58, 4H675-AA; experiment: two-hybrid library CCmax; conditions: mean of both orientations
T58 chain: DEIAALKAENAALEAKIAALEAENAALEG

[60] = biological target: T59, 4H2948-AA; experiment: two-hybrid library CCmax; conditions: mean of both orientations
T59 chain: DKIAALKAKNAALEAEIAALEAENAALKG

[61] = biological target: T60, 4H3628-AA; experiment: two-hybrid library CCmax; conditions: mean of both orientations
T60 chain: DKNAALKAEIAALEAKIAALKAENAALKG

[62] = biological target: T61, 4H3920-AA; experiment: two-hybrid library CCmax; conditions: mean of both orientations
T61 chain: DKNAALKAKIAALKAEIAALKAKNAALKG

[63] = biological target: T62, 4H3709-AA; experiment: two-hybrid library CCmax; conditions: mean of both orientations
T62 chain: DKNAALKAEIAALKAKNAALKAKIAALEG

[64] = biological target: T63, 4H3446-AA; experiment: two-hybrid library CCmax; conditions: mean of both orientations
T63 chain: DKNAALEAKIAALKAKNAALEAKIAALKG

Binder: DKNQELEKKIEELKRENWELEKKIQELKR [4H3414-bH]
- interaction score [1]: -0.25
- interaction score [2]: 0.938
- interaction score [3]: 0.00973
- interaction score [4]: 0.0371
- interaction score [5]: 0.48
- interaction score [6]: 0.846
- interaction score [7]: -0.695
- interaction score [8]: 0.689
- interaction score [9]: 0.33
- interaction score [10]: 0.721
- interaction score [11]: -1.45

Binder: DELAANEAELAAEEAKLAAAKAKAAALKG [AP4-AA]
- interaction score [12]: -0.858
- interaction score [13]: -1.78
- interaction score [14]: -1.15
- interaction score [15]: -1.14
- interaction score [16]: -1.34
- interaction score [17]: -1.46
- interaction score [18]: -1.25
- interaction score [19]: -1.48
- interaction score [20]: -1.45
- interaction score [21]: -1.78
- interaction score [22]: -1.51
- interaction score [23]: -1.55
- interaction score [24]: -1.82
- interaction score [25]: -1.6
- interaction score [26]: -2.03
- interaction score [27]: -1.25

Binder: DKNQELKKEIEELERKIWELKKKNQELER [4H3631-bH]
- interaction score [1]: -1.74
- interaction score [3]: -1.94
- interaction score [5]: 0.637
- interaction score [6]: -1.5
- interaction score [7]: -0.0526
- interaction score [8]: 1.13
- interaction score [9]: 0.292
- interaction score [10]: 0.647
- interaction score [28]: 0.206
- interaction score [11]: 0.578

Binder: DKNQELEKKIEELERKIWELEKENQELKR [4H3364-bH]
- interaction score [29]: 0.55
- interaction score [30]: 0.546
- interaction score [31]: -0.252
- interaction score [32]: -0.464
- interaction score [33]: 0.622
- interaction score [34]: -0.523
- interaction score [35]: 0.153
- interaction score [36]: 1.55
- interaction score [37]: -0.811
- interaction score [38]: -0.118

Binder: DEIAALEAENAALEAKNAALKAKIAALEG [4H189-AA]
- interaction score [39]: -1.4
- interaction score [40]: -1.84
- interaction score [41]: -1.52
- interaction score [42]: -1.25
- interaction score [43]: 0.26
- interaction score [44]: -1.19
- interaction score [45]: 1.07
- interaction score [46]: -1.76
- interaction score [47]: -1.26
- interaction score [48]: -1.74
- interaction score [49]: -1.92
- interaction score [50]: -1.47
- interaction score [51]: 1.11
- interaction score [52]: -0.83
- interaction score [53]: 1.85
- interaction score [54]: -0.919
- interaction score [55]: -1.71
- interaction score [56]: 2.05
- interaction score [57]: 1.05
- interaction score [58]: -0.914
- interaction score [59]: -1.31
- interaction score [60]: -1.02
- interaction score [61]: -1.64
- interaction score [62]: -1.97
- interaction score [63]: -1.23
- interaction score [64]: -1.07
